B1: FGF10: FGF produced by mesenchymal cells, used at about 100 ng/mL (protein, UniProt O15520 38-208, looked up)
Fibroblast growth factor 10: QALGQDMVSPEATNSSSSSFSSPSSAGRHVRSYNHLQGDVRWRKLFSFTKYFLKIEKNGKVSGTKKENCPYSILEITSVEIGVVAVKAINSNYYLAMNKKGKLYGSKEFNNDCKLKERIEENGYNTYASFNWQHNGRQMYVALNGKGAPRRGQKTRRKNTSAHFLPMVVHS
B2: GDF11: member of the BMP/TGFbeta superfamily (protein, UniProt O95390 299-407, looked up)
Growth/differentiation factor …: NLGLDCDEHSSESRCCRYPLTVDFEAFGWDWIIAPKRYKANYCSGQCEYMFMQKYPHTHLVQQANPRGSAGPCCTPTKMSPINMLYFNDKQQIIYGKIPGMVVDRCGCS

System: rat MAPCs
Assay: Cytokine mediated differentiation of rat MAPCs, Q-RT-PCR and cell survival
Type: cell-based
Method: For Q-RT-PCR reactions described herein, the primer sequences are presented in Tables 3-5 and the following protocols were used: RNA was extracted from the cells with the aid of the RNeasy Mini Kit (Qiagen; Valencia Calif.), followed by a DNase Treatment with DNA-Free™ (Ambion, Austin, Tex.). The RNA was reverse transcribed with TaqMan (Applied Biosystems, Foster City, Calif.; Step 1 (Incubation): 25° C., 10 min; Step 2 (RT): 48° C., 30 min; Step 3 (RT Inactivation): 95° C., 10 min).
Following reverse transcription, Quantitative Real Time PCR (Q-RT-PCR) was performed as follows: Step 1: 50° C., 2 min (Incubation); Step 2: 95° C., 10 min (Taq activation); Step 3: 95° C., 15 sec (Denaturation) followed by 60° C., 1 min (Extension) and repeat for 40 cycles; Step 4: 95° C., 15 sec (Dissociation); Step 5: 60° C., 20 sec (Melting curve); Step 6: 95° C., 15 sec.
In an initial series of studies, the effect of cell density (about 10^4-10^5 cells/cm^2), ECM component (fibronectin, collagen, matrigel) and different concentrations (10-100 ng/mL) of bFGF (10-100 ng/mL), FGF2 (10-100 ng/mL), Activin A (e.g., about 10 ng/mL to about 100 ng/mL), BMP4 (e.g., about 10 ng/mL to about 50 ng/mL), retinoic acid (about 10^−6M), EGF (e.g., about 10 to about 100 ng/mL), FGF10 (e.g., about 50 to about 150 ng/mL, including about 100 ng/mL), HGF (e.g., about 10 to about 100 ng/mL), GDF11 (e.g., about 50 to abut 150 ng/mL), cyclopamine (e.g., about 10 μM), anti-SHH antibody (Ab; e.g., about 10 μg/mL), nicotinamide (e.g., 5 μM to about 50 μM, including about 10 μM), exendin 4 (about 5 nM to about 50 nM, including about 10 nM), betacellulin (e.g., about 50 to abut 150 ng/mL) alone or in combinations of 2 or 3 and in different temporal sequences, on the induction of transcription factors, insulin, glucagon and somatostatin expression levels after 6, 12 and 18 days using Q-RT-PCR was determined.
Subsequent addition of factors believed to play a role in further proliferation and differentiation from pancreas-committed cells to mature endocrine pancreas, including EGF (e.g., about 50 ng/mL), HGF (e.g., about 50 ng/mL) and FGF10 (e.g., about 100 ng/mL), either alone or in combination was tested. […] Further optimization was obtained by adjusting the duration of the different steps along the differentiation course, as well addition of β-cellulin (50 ng/mL).

Row | Molecule | cell survival (activin-A, BMP4 and cyclopamine or anti-SHH Ab withdrawn after d6, cells then maintained with the factor) | Ins1 and Ins2 mRNA levels (GDF11 added)
1 | B1 | not | 
2 | B2 |  | a further increase

From patent US8409859B2, “Differentiation of non-embryonic stem cells to cells having a pancreatic phenotype” (Regents of the University of Minnesota, priority 2005, dated 2013)
